Laboratory results taken from US11795460B2, “Compositions and methods for TTR gene editing and treating ATTR amyloidosis” (Intellia Therapeutics, Inc., priority 2017, dated 2023).
Strand notation (5' to 3'): a small letter for the sugar, then the base; units joined by * are phosphorothioate-linked, units joined directly phosphodiester-linked; [ ] holds rarer units or linkages, { } end groups; capitals alone tell only the bases. m = 2'-O-methyl; r = 2'-OH (RNA)

B1: G000498: TTR sgRNA modified sequence, Human, SEQ ID No. 105; guide sequence of CR003359 (nucleic acid)
guide: mA*mG*mU*rGrArGrUrCrUrGrGrArGrArGrCrUrGrCrArGrUrUrUrUrArGrAmGmCmUmAmGmAmAmAmUmAmGmCrArArGrUrUrArArArArUrArArGrGrCrUrArGrUrCrCrGrUrUrArUrCrAmAmCmUmUmGmAmAmAmAmAmGmUmGmGmCmAmCmCmGmAmGmUmCmGmGmUmGmCmU*mU*mU*mU
B2: G000485: TTR sgRNA modified sequence, Human, SEQ ID No. 92; guide sequence of CR003336 (nucleic acid)
guide: mC*mC*mU*rCrCrUrCrUrGrCrCrUrUrGrCrUrGrGrArCrGrUrUrUrUrArGrAmGmCmUmAmGmAmAmAmUmAmGmCrArArGrUrUrArArArArUrArArGrGrCrUrArGrUrCrCrGrUrUrArUrCrAmAmCmUmUmGmAmAmAmAmAmGmUmGmGmCmAmCmCmGmAmGmUmCmGmGmUmGmCmU*mU*mU*mU
B3: G000483: TTR sgRNA modified sequence, Human, SEQ ID No. 90; guide sequence of CR005298 (nucleic acid)
guide: mU*mC*mC*rArCrUrCrArUrUrCrUrUrGrGrCrArGrGrArGrUrUrUrUrArGrAmGmCmUmAmGmAmAmAmUmAmGmCrArArGrUrUrArArArArUrArArGrGrCrUrArGrUrCrCrGrUrUrArUrCrAmAmCmUmUmGmAmAmAmAmAmGmUmGmGmCmAmCmCmGmAmGmUmCmGmGmUmGmCmU*mU*mU*mU
B4: G000571: TTR sgRNA modified sequence, Human, SEQ ID No. 112; guide sequence of CR005301 (nucleic acid)
guide: mG*mU*mC*rArCrArGrArArArCrArCrUrCrArCrCrGrUrGrUrUrUrUrArGrAmGmCmUmAmGmAmAmAmUmAmGmCrArArGrUrUrArArArArUrArArGrGrCrUrArGrUrCrCrGrUrUrArUrCrAmAmCmUmUmGmAmAmAmAmAmGmUmGmGmCmAmCmCmGmAmGmUmCmGmGmUmGmCmU*mU*mU*mU
B5: G000491: TTR sgRNA modified sequence, Human, SEQ ID No. 98; guide sequence of CR003338 (nucleic acid)
guide: mA*mU*mA*rCrCrArGrUrCrCrArGrCrArArGrGrCrArGrGrUrUrUrUrArGrAmGmCmUmAmGmAmAmAmUmAmGmCrArArGrUrUrArArArArUrArArGrGrCrUrArGrUrCrCrGrUrUrArUrCrAmAmCmUmUmGmAmAmAmAmAmGmUmGmGmCmAmCmCmGmAmGmUmCmGmGmUmGmCmU*mU*mU*mU
B6: G000567: TTR sgRNA modified sequence, Human, SEQ ID No. 109; guide sequence of CR003352 (nucleic acid)
guide: mG*mA*mA*rArGrGrCrUrGrCrUrGrArUrGrArCrArCrCrGrUrUrUrUrArGrAmGmCmUmAmGmAmAmAmUmAmGmCrArArGrUrUrArArArArUrArArGrGrCrUrArGrUrCrCrGrUrUrArUrCrAmAmCmUmUmGmAmAmAmAmAmGmUmGmGmCmAmCmCmGmAmGmUmCmGmGmUmGmCmU*mU*mU*mU
B7: G000494: TTR sgRNA modified sequence, Human, SEQ ID No. 101; guide sequence of CR003360 (nucleic acid)
guide: mG*mU*mG*rArGrUrCrUrGrGrArGrArGrCrUrGrCrArUrGrUrUrUrUrArGrAmGmCmUmAmGmAmAmAmUmAmGmCrArArGrUrUrArArArArUrArArGrGrCrUrArGrUrCrCrGrUrUrArUrCrAmAmCmUmUmGmAmAmAmAmAmGmUmGmGmCmAmCmCmGmAmGmUmCmGmGmUmGmCmU*mU*mU*mU
B8: G000568: TTR sgRNA modified sequence, Human, SEQ ID No. 110; guide sequence of CR003391 (nucleic acid)
guide: mG*mG*mC*rUrGrUrCrGrUrCrArCrCrArArUrCrCrCrArGrUrUrUrUrArGrAmGmCmUmAmGmAmAmAmUmAmGmCrArArGrUrUrArArArArUrArArGrGrCrUrArGrUrCrCrGrUrUrArUrCrAmAmCmUmUmGmAmAmAmAmAmGmUmGmGmCmAmCmCmGmAmGmUmCmGmGmUmGmCmU*mU*mU*mU
B9: G000484: TTR sgRNA modified sequence, Human, SEQ ID No. 91; guide sequence of CR003367 (nucleic acid)
guide: mA*mG*mA*rCrArCrCrArArArUrCrUrUrArCrUrGrGrArGrUrUrUrUrArGrAmGmCmUmAmGmAmAmAmUmAmGmCrArArGrUrUrArArArArUrArArGrGrCrUrArGrUrCrCrGrUrUrArUrCrAmAmCmUmUmGmAmAmAmAmAmGmUmGmGmCmAmCmCmGmAmGmUmCmGmGmUmGmCmU*mU*mU*mU
B10: G000499: TTR sgRNA modified sequence, Human, SEQ ID No. 106; guide sequence of CR005303 (nucleic acid)
guide: mU*mG*mA*rArUrCrCrArArGrUrGrUrCrCrUrCrUrGrArGrUrUrUrUrArGrAmGmCmUmAmGmAmAmAmUmAmGmCrArArGrUrUrArArArArUrArArGrGrCrUrArGrUrCrCrGrUrUrArUrCrAmAmCmUmUmGmAmAmAmAmAmGmUmGmGmCmAmCmCmGmAmGmUmCmGmGmUmGmCmU*mU*mU*mU
B11: G000572: TTR sgRNA modified sequence, Human, SEQ ID No. 113; guide sequence of CR003385 (nucleic acid)
guide: mC*mC*mC*rCrUrArCrUrCrCrUrArUrUrCrCrArCrCrArGrUrUrUrUrArGrAmGmCmUmAmGmAmAmAmUmAmGmCrArArGrUrUrArArArArUrArArGrGrCrUrArGrUrCrCrGrUrUrArUrCrAmAmCmUmUmGmAmAmAmAmAmGmUmGmGmCmAmCmCmGmAmGmUmCmGmGmUmGmCmU*mU*mU*mU
B12: G000570: TTR sgRNA modified sequence, Human, SEQ ID No. 111; guide sequence of CR003347 (nucleic acid)
guide: mC*mA*mU*rUrGrArUrGrGrCrArGrGrArCrUrGrCrCrUrGrUrUrUrUrArGrAmGmCmUmAmGmAmAmAmUmAmGmCrArArGrUrUrArArArArUrArArGrGrCrUrArGrUrCrCrGrUrUrArUrCrAmAmCmUmUmGmAmAmAmAmAmGmUmGmGmCmAmCmCmGmAmGmUmCmGmGmUmGmCmU*mU*mU*mU

How the values were obtained:
TTR = TTR editing in primary cyno hepatocytes electroporated with Spy Cas9 protein and sgRNAs (Tables 14, 15); type: cell-based, cynomolgus monkey; conditions: Table 14; primary cyno hepatocytes electroporated with Spy Cas9 protein (RNP) and sgRNAs
Experimental: Primary liver hepatocytes. Primary human liver hepatocytes (PHH) and primary cynomolgus liver hepatocytes (PCH) (Gibco) were cultured per the manufacturer's protocol (Invitrogen, protocol 11.28.2012). In brief, the cells were thawed and resuspended in hepatocyte thawing medium with supplements (Gibco, Cat. CM7000) followed by centrifugation at 100 g for 10 minutes for human and 80 g for 4 minutes for cyno. The supernatant was discarded and the pelleted cells resuspended in hepatocyte plating medium plus supplement pack (Invitrogen, Cat. A1217601 and CM3000). Cells were counted and plated on Bio-coat collagen I coated 96-well plates (ThermoFisher, Cat. 877272) at a density of 33,000 cells/well for human or 60,000 cells/well for cyno (or 65,000 cells/well when assaying effects on TTR protein, described further below). Plated cells were allowed to settle and adhere for 6 or 24 hours in a tissue culture incubator at 37° C. and 5% CO2 atmosphere. After incubation cells were checked for monolayer formation and media was replaced with hepatocyte culture medium with serum-free supplement pack (Invitrogen, Cat. A1217601 and CM4000).
[…] formation was performed prior to electroporation or transfection of Spy Cas9 protein loaded with guide RNAs (RNPs) onto cells. For dual guide (dgRNAs), individual crRNA and trRNA was pre-annealed by mixing equivalent amounts of reagent and incubating at 95° C. for 2 min and cooling to room temperature. Single guide (sgRNAs) were boiled at 95° C. for 2 min and cooling to room temperature. The boiled dgRNA or sgRNA was incubated with Spy Cas9 protein in Optimem for 10 minutes at room temperature to form a ribonucleoprotein (RNP) complex.
For RNP electroporation into primary human and cyno hepatocytes, the cells are thawed and resuspended in Lonza electroporation Primary Cell P3 buffer at a concentration of 2500 cells per μL for human hepatocytes and 3500 cells per μL for cyno hepatocytes. A volume of 20 μL of resuspended cells and 5 μL of RNP are mixed together per guide. 20 μL of the mixture is placed into a Lonza electroporation plate. The cells were electroporated using the Lonza nucleofector with the preset protocol EX-147. Post electroporation, the cells are transferred into a Biocoat plate containing pre-warmed maintenance media and placed in a tissue culture incubator at 37° C. and 5% CO2.
Transfected cells were harvested post-transfection at 24, 48, or 72 hours. The genomic DNA was extracted from each well of a 96-well plate using 50 μL/well BuccalAmp DNA Extraction solution (Epicentre, Cat. QE09050) per manufacturer's protocol. All DNA samples were subjected to PCR and subsequent NGS analyses, as described herein.
To quantitatively determine the efficiency of editing at the target location in the genome, sequencing was utilized to identify the presence of insertions and deletions introduced by gene editing.
Primers were designed around the target site within the gene of interest (e.g. TTR), and the genomic area of interest was amplified.
Additional PCR was performed per the manufacturer's protocols (Illumina) to add chemistry for sequencing. The amplicons were sequenced on an Illumina MiSeq instrument. The reads were aligned to a reference genome (e.g., the human reference genome (hg38), the cynomologus reference genome (mf5), the rat reference genome (rn6), or the mouse reference genome (mm10)) after eliminating those having low quality scores. The resulting files containing the reads were mapped to the reference genome (BAM files), where reads that overlapped the target region of interest were selected and the number of wild type reads versus the number of reads which contain an insertion, substitution, or deletion was calculated.
The editing percentage (e.g., the “editing efficiency” or “percent editing” or “indel frequency”) is defined as the total number of sequence reads with insertions/deletions (“indels”) or substitutions over the total number of sequence reads, including wild type. […]

TTR mRNA = TTR mRNA knockdown in primary human hepatocytes by quantitative PCR (Tables 34, 35); type: cell-based; conditions: TTR mRNA in PHH; LNP dose 300 ng mRNA cargo; gRNA:mRNA 1:2; 96 hours after treatment; biological triplicates; vs untreated control
Experimental: In one experiment, PHH were cultured and treated with LNPs comprising Cas9 mRNA (SEQ ID NO:1) and a gRNA of interest (See FIG. 29, Table 34), as described in Example 4. The LNPs were prepared using the cross-flow procedure described above and purified and concentrated using PD-10 columns and Amicon centrifugal filter units, respectively. The LNPs were formulated with an N:P ratio of 6.0 and contained Lipid A, Cholesterol, DSPC, and PEG2k-DMG in a 50:38:9:2 molar ratio, respectively. The LNPs comprised a gRNA:mRNA ratio of 1:2, and the cells were treated at a dose of 300 ng (with respect to the amount of mRNA cargo delivered).
(§1) Ninety-six (96) hours following LNP treatment (with biological triplicates for each condition), mRNA was purified from PHH cells using the Dynabeads mRNA DIRECT Kit (ThermoFisher Scientific) according to the manufacturer's protocol. Reverse Transcription (RT) was performed with Maxima reverse transcriptase (ThermoFisher Scientific) and a poly-dT primer. The resulting cDNA was purified with Ampure XP Beads (Agencourt). For Quantitative PCR, 2% of the purified cDNA was amplified with Taqman Fast Advanced Mastermix and 3 Taqman probe sets, TTR (Assay ID: Hs00174914_m1), GAPDH (Assay ID: Hs02786624_g1), and PPIB (Assay ID: Hs00168719_m1). The assays were run on the QuantStudio 7 Flex Real Time PCR System according to the manufacturer's instructions (Life Technologies). Relative expression of TTR mRNA was calculated by normalizing to the endogenous controls (GAPDH and PPIB) individually, and then averaged.
In a separate experiment, TTR mRNA knockdown was evaluated following treatment with LNPs comprising G000480, G000486, and G000502. The LNPs were formulated and PHH were cultured and treated with the LNPs, each as described in the experiment above in this Example with the exception that the cells were treated at a dose of 100 ng (with respect to the amount of mRNA cargo delivered).
as §1, with “(single treatment” for “(with biological triplicates”, “the High Capacity cDNA Reverse Transcription Kit” for “Maxima reverse transcriptase”, “according to the manufacturer's instructions.” for “and a poly-dT primer. The resulting cDNA was purified with Ampure XP Beads (Agencourt).”, “the” for “the purified”

Molecule | Avg % Deletion (TTR) [%] | Avg % Edit (TTR) [%] | Avg % Insert (TTR) [%] | Avg % Knockdown (TTR mRNA) [%]
B1 | 22.87 | 91.37 | 68.50 | –
B2 | 1.07 | 22.93 | 22.00 | –
B3 | – | – | – | 68.78
B4 | – | – | – | 96.17
B5 | 1.90 | 66.20 | 64.37 | –
B6 | – | – | – | 90.89
B7 | 2.07 | 81.53 | 79.57 | 91.15
B8 | – | – | – | 53.44
B9 | – | – | – | 75.22
B10 | 1.43 | 83.40 | 82.00 | 91.38
B11 | – | – | – | 55.92
B12 | – | – | – | 93.38
